From patent US20260125472A1 (HEFEI TG IMMUNOPHARMA, published 2026) come the findings set out here.

In experiment [1] the target is T1, CD3E&D protein (UniProt P04234 22-105).
T1 construct: Purchased from Acro; also called CD3 E&D antigens; CD3E&D antigen protein
Nature of the experiment: ELISA, coated CD3E&D protein, OD450 [panel A]. An excerpt: In this example, the binding properties of the CD3×Trop2 and CD3×PDL1 bispecific antibody (the production method and the amino acid sequences of the heavy and light chains were shown in Example 1) were detected by using ELISA. The CD3E&D, Trop2, or PDL1 protein was coated onto 96-well plates by inventors, and the strength of the signal after the addition of the antibody was used to determine the binding properties of the antibody and the corresponding protein.
(1) CD3E&D protein (purchased from Acro) was diluted to 2 μg/ml with PBS buffer, added to a 96-well plate at a volume of 100 μL/well, and placed at 4° C. overnight. The PBS buffer in the 96-well plate was aspirated, and the plate was washed 6 times with PBST (pH 7.2 PBS containing 0.1% Tween 20) buffer. Then, 200 μL/well PBS/10% BSA was added and incubated at 37° C. for 2 h for blocking. The blocking solution was removed, and the plate was washed 6 times with PBST. […] The absorbance was read at 450 nm using a microplate reader.
In general terms: In an ELISA, binding on a coated surface is turned into a signal by an enzyme label.

Experiment [2] deals with T2, PDL1 on A-375 melanoma cells, HCT-15 colorectal cancer cells and A549 lung cancer cells (UniProt Q9NZQ7 19-290, limits assumed).
T2 construct: whole, on cells
Kind of experiment: flow cytometry, A549 cells, MFI [panel B]. In outline: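 Cells were blocked with goat serum at 4° C for 30 min, then incubated with serially diluted bispecific antibodies or hIgG1LALA control at 4° C for 30 min. Bound antibody was detected with Alexa-647 anti-human IgG (4° C, 30 min, dark) and read by flow cytometry.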
On the technique in general: A flow cytometer gives signals particle by particle.

In experiment [3] the target is T3, CD3 on CD8 T cells (Homo sapiens (Human), UniProt P07766 23-207).
T3 construct: Native CD3 complex on CD8 T cells among PBMCs; also called T cells (PBMCs gated with anti-human CD8 antibody)
Nature of the experiment: flow cytometry, CD8 T cells in PBMCs, binding ratio % [panel A]. Here is the method: (1) PBMCs were diluted to 2×10⁶/ml with PBS and added to a 1.5 ml EP tube at 100 μl/tube, goat serum was added thereto at 10 μl/tube. The cells were blocked at 4° C. for 30 min. The serially diluted bispecific antibodies, Cross3×Trop2, Cross303×Trop2, Cross307×Trop2, Cross308×Trop2, Cross309×Trop2, Cross310×Trop2, Cross311×Trop2, Cross312×Trop2, Cross313×Trop2, Cross314×Trop2, Cross316×Trop2, Cross317×Trop2, Cross318×Trop2, Cross323×Trop2, Cross325×Trop2, Cross326×Trop2, Cross3×PDL1, Cross313×PDL1, Cross316×PDL1, Cross325×PDL1, and control hIgG1LALA (purchased from Bio-Tech) were added and incubated at 4° C. for 30 min. 1 ml of PBS was added to the EP tube, followed by centrifugation at 3500 rpm for 5 min at 4° C. The supernatant was discarded, and the system was washed again with PBS. After centrifugation, the supernatant was discarded, and the cells were resuspended with PBS at 100 μl/tube. 1 μl/tube Alexa-647-labeled goat anti-human IgG secondary antibody (purchased from Jackson lab) and 0.5 μl/tube PerCP-Cy5.5-labeled anti-human CD8 antibody were added and incubated at 4° C. in the dark for 30 min. The cells were washed twice with PBS. After centrifugation, the supernatant was discarded. The cells were resuspended with 200 μl/tube of PBS and assay is performed by flow cytometry.

The target of experiment [4] is T4, PDL1 protein (UniProt Q9NZQ7 19-238).
T4 construct: Bought recombinant protein
Nature of the experiment: ELISA, coated PDL1 protein, OD450 [panel A]. In outline: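 PDL1 protein coated at 2 μg/ml overnight at 4 °C, blocked with PBS/10% BSA; serially diluted bispecific antibodies or control IgG1LALA bound 1 h at 37 °C. Detection with HRP anti-human Fab secondary antibody and TMB for 3 min, stopped with sulfuric acid, absorbance at 450 nm.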

Experiment [5] concerns the target T3, CD3 on CD8 T cells. Kind of experiment: flow cytometry, CD8 T cells in PBMCs, binding ratio % [panel A]. Here is the method:
(§1) PBMCs were diluted with PBS to 2×10⁶/mL and added to a 1.5 ml EP tube at a volume of 100 μL/tube, 10 μL/tube of goat serum was added thereto and incubated at 4° C. for 30 min for blocking. […] 1 mL of PBS was added to the EP tube, followed by centrifugation at 3500 rpm for 5 min at 4° C. The supernatant was discarded, and the cells were washed again with PBS. After centrifugation, the supernatant was discarded, and the cells were resuspended with 100 μl/tube PBS. 1 μl/tube Alexa-647-labeled goat anti-human secondary antibody (purchased from Jackson lab) and 0.5 μl/tube PerCP-Cy5.5-labeled anti-human CD8 antibody were added and incubated at 4° C. in the dark for 30 min. The cells were washed twice with PBS, and the supernatant was discarded after centrifugation. The cells were resuspended with […] of PBS and assayed using the flow cytometry.
The source holds these as a separate data set.

Experiment [6] concerns the target T1, CD3E&D protein. Kind of experiment: SPR (Biacore 8K), antibody on CM5 chip, CD3 E&D antigen as analyte. Also noted: Fold change: reference not given here. Here is the method: In a Biacore 8K (Cytiva) system, the antibody was diluted to 10 μg/mL in HBS-EP running buffer and coupled to a CM5 chip (Cytiva) at a flow rate of 10 μL/min.
(In general: SPR reads the build-up and loss of mass on a sensor chip optically.)

The target of experiment [7] is T1, CD3E&D protein. Kind of experiment: ELISA, coated CD3E&D protein, OD450 [panel B]. As for the experimental part:
In this example, the binding properties of the parental antibody Cross3 and the CD3 affinity-reduced antibody (the production method and the amino acid sequences of the heavy and light chains were shown in Example 1) were detected by ELISA. The CD3E&D protein was coated onto a 96-well plate by the inventors, and the strength of the signal after the addition of the antibody was used to determine the binding properties of the antibody and CD3E&D.
CD3E&D protein (purchased from Acro) was diluted to 2 μg/ml with PBS buffer, added to a 96-well plate at a volume of 100 μL/well, and placed at 4° C. overnight. The PBS buffer in the 96-well plate was aspirated, and the plate was washed 6 times with PBST (pH 7.2 PBS containing 0.1% Tween 20) buffer. Then, 200 μL/well PBS/10% BSA was added and incubated at 37° C. for 2 h for blocking. The blocking solution was removed, and the plate was washed six times with PBST. Then, the to-be-tested antibodies serially diluted with PBST/0.05% BSA, Cross3, Cross303, Cross307, Cross308, Cross309, Cross310, Cross311, Cross312, Cross313, Cross314, Cross316, Cross317, Cross318, Cross323, Cross325, Cross326, and control IgG1 (purchased from Bio-Tech) were added at 100 μL/well, and incubated at 37° C. for 1 h. The reaction system was removed, and the plate was washed 6 times with PBST. Then, the cells were incubated at 37° C. for 1 h with HRP (horseradish peroxidase)-labeled anti-human secondary antibody (Fab specific) (purchased from Sigma) serially diluted with PBST/0.05% BSA at 100 μL/well. The plate was washed six times with PBST, TMB (tetramethylbenzidine) was added at 80 μL/well and incubated at room temperature for 3 min. 4 M sulfuric acid was added at 80 μL/well to terminate the reaction. The absorbance was read at 450 nm using a microplate reader.

The target of experiment [8] is T3, CD3 on CD8 T cells. Kind of experiment: flow cytometry, CD8 T cells in PBMCs, MFI [panel B]. As for the experimental part: as §1

By EC50 (read off the curve) is commonly meant the concentration giving half of the maximal effect. Usually Kd stands for a measure of binding affinity in units of concentration. For orientation: koff means a measure of how fast the partners let go of each other. As a reminder, the kon is a measure of how fast the partners come together.

T1 sequence (chain, as listed by the source limits assumed, chain 1 of 2): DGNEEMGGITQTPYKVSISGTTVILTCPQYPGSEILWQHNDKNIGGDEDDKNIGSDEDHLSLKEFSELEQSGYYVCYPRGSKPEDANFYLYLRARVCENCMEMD
T1 sequence (P04234 22-105 limits assumed, chain 2 of 2): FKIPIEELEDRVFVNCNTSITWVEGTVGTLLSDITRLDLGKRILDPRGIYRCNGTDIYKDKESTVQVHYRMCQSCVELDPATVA
T3 sequence (P07766 23-207 limits assumed): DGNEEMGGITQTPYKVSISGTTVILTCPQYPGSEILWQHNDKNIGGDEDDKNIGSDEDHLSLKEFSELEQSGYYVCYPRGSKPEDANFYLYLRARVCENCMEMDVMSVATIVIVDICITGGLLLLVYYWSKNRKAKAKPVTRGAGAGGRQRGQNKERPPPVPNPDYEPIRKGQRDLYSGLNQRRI
T2 sequence (Q9NZQ7 19-290 limits assumed): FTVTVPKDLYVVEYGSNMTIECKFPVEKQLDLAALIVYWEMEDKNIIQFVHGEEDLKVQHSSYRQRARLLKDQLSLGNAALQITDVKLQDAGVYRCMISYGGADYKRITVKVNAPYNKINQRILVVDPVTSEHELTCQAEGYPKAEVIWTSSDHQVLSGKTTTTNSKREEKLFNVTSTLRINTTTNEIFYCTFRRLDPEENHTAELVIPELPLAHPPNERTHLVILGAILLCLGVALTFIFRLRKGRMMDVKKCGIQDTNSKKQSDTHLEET
T4 sequence (Q9NZQ7 19-238 limits assumed): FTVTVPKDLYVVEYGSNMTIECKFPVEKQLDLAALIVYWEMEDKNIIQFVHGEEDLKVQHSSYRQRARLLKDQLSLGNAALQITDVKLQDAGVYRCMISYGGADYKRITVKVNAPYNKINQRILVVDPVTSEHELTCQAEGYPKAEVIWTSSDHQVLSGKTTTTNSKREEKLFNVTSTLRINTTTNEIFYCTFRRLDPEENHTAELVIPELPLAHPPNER

B1: Cross316×PDL1 (bispecific antibody, human IgG1, kappa, L234A L235A)
scFv: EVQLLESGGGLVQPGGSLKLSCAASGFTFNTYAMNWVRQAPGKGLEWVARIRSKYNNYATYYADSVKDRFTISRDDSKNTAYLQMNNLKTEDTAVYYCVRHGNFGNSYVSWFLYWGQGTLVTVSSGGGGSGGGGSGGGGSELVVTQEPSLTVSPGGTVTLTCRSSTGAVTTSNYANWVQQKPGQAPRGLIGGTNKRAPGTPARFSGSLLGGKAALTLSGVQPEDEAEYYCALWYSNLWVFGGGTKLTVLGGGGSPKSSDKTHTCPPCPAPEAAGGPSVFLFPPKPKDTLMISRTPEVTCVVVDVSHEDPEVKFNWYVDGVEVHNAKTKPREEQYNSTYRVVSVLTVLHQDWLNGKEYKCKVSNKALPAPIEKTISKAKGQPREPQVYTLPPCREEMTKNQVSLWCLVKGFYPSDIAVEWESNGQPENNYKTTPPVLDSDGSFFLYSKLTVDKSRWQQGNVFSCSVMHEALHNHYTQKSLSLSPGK
heavy: QVQLVQSGAEVKKPGASVKVSCKASGYSFTGYYMHWVRQAPGQGLEWIGRINPYNGATTYSQNFKDRATMTVDTSISTAYMELSRLRSDDTAVYYCVPTGMGYFLMDYWGQGTLVTVSSASTKGPSVFPLAPSSKSTSGGTAALGCLVKDYFPEPVTVSWNSGALTSGVHTFPAVLQSSGLYSLSSVVTVPSSSLGTQTYICNVNHKPSNTKVDKKVEPKSCDKTHTCPPCPAPEAAGGPSVFLFPPKPKDTLMISRTPEVTCVVVDVSHEDPEVKFNWYVDGVEVHNAKTKPREEQYNSTYRVVSVLTVLHQDWLNGKEYKCKVSNKALPAPIEKTISKAKGQPREPQVCTLPPSREEMTKNQVSLSCAVKGFYPSDIAVEWESNGQPENNYKTTPPVLDSDGSFFLVSKLTVDKSRWQQGNVFSCSVMHEALHNHYTQKSLSLSPGK
light: DIQLTQSPSFLSASVGDRVTITCKASQDVGSAVVWYQQKPGKAPKLLIYWASTRHTGVPSRFSGSGSGTEFTLTISSLQPEDFATYFCQQFTSYPTFGQGTKLEIKRTVAAPSVFIFPPSDEQLKSGTASVVCLLNNFYPREAKVQWKVDNALQSGNSQESVTEQDSKDSTYSLSSTLTLSKADYEKHKVYACEVTHQGLSSPVTKSFNRGEC
In the case of B1, the “EC50 (read off the curve)” value in experiment [1] was ~0.8 µg/mL; in experiment [2], ~1 µg/mL; in experiment [3], ~0.2 µg/mL; in experiment [4], ~0.2 µg/mL.

B2: Cross317 (antibody, human IgG1, kappa, V domains shown)
VH: EVQLLESGGGLVQPGGSLKLSCAASGFTFNTYAMNWVRQAPGKGLEWVARIRSKYNNYATYYADSVKDRFTISRDDSKNTAYLQMNNLKTEDTAVYYCVRHGNFGNSYVSWFAGWGQGTLVTVSS
VL: ELVVTQEPSLTVSPGGTVTLTCRSSTGAVTTSNYANWVQQKPGQAPRGLIGGTNKRAPGTPARFSGSLLGGKAALTLSGVQPEDEAEYYCALWYSNLWVFGGGTKLTVLR
Turning to B2, the “EC50 (read off the curve)” value in experiment [5] was ~0.5 µg/mL. Further, in experiment [6], the Fold change worked out at 16.2, binding was put at a Kd of 2.68 nM, the koff came to 0.00761 s⁻¹ and the kon came out at 2.84e+06 M⁻¹ s⁻¹. Moreover, in experiment [7], the “EC50 (read off the curve)” value was ~0.03 µg/mL. Also, in experiment [8], the “EC50 (read off the curve)” value is ~2 µg/mL.
